From patent publication US20180339017A1 (Merck Sharp & Dohme, published 2018) come the findings set out here.

Assay in all cases: cell-based or functional assay
For test [1], the target named is T1, human glucagon receptor (human, UniProt P47871 26-477).
Test [2] has as its target T2, human GLP-1 receptor (human, UniProt P43220 24-463).
Test [3] has as its target T1, human glucagon receptor. The source holds these as a separate data set.
The target in test [4] is T2, human GLP-1 receptor. The source holds these as a separate data set.

Read-outs that look alike come from different tables or passages of the source. Starred links: 1 amine or outer side, 2 acyl side, 3 side chain; linkers in the order of their positions; H or OH if unused. Non-standard residues stand in square brackets, D forms with d. Groups on a side chain read outwards from the residue. No end group written: not given here. *: point of attachment. γGlu = O=C(O)[C@H](CCC(=O)[*:2])N[*:1]; Palmitoyl = CCCCCCCCCCCCCCCC(=O)*

T1 sequence (P47871 26-477): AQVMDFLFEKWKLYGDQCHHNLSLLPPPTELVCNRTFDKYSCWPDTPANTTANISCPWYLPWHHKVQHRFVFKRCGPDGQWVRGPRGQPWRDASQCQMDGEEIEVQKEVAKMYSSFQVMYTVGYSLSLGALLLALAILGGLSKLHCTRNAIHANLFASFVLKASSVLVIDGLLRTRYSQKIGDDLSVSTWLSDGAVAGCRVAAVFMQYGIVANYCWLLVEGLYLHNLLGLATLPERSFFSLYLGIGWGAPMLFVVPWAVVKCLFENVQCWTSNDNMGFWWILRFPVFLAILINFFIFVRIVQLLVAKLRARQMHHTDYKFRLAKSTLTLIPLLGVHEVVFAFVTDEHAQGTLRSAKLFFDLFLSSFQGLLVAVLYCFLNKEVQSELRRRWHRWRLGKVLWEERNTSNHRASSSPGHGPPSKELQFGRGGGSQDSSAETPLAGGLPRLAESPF

B1: TP534 (peptide)
peptide: H[dS]QGTFTSDK([γGlu-γGlu-Palmitoyl])SKYLDNKRAQDFVQWLMQT-NH2
modifications: N-terminus assumed
SMILES: CCCCCCCCCCCCCCCC(=O)N[C@@H](CCC(=O)N[C@@H](CCC(=O)NCCCC[C@H](NC(=O)[C@H](CC(=O)O)NC(=O)[C@H](CO)NC(=O)[C@@H](NC(=O)[C@H](Cc1ccccc1)NC(=O)[C@@H](NC(=O)CNC(=O)[C@H](CCC(N)=O)NC(=O)[C@@H](CO)NC(=O)[C@@H](N)Cc1c[nH]cn1)[C@@H](C)O)[C@@H](C)O)C(=O)N[C@@H](CO)C(=O)N[C@@H](CCCCN)C(=O)N[C@@H](Cc1ccc(O)cc1)C(=O)N[C@@H](CC(C)C)C(=O)N[C@@H](CC(=O)O)C(=O)N[C@@H](CC(N)=O)C(=O)N[C@@H](CCCCN)C(=O)N[C@@H](CCCNC(=N)N)C(=O)N[C@@H](C)C(=O)N[C@@H](CCC(N)=O)C(=O)N[C@@H](CC(=O)O)C(=O)N[C@@H](Cc1ccccc1)C(=O)N[C@H](C(=O)N[C@@H](CCC(N)=O)C(=O)N[C@@H](Cc1c[nH]c2ccccc12)C(=O)N[C@@H](CC(C)C)C(=O)N[C@@H](CCSC)C(=O)N[C@@H](CCC(N)=O)C(=O)N[C@H](C(N)=O)[C@@H](C)O)C(C)C)C(=O)O)C(=O)O
As for B1, the “EC50 hGCGR (cAMP activity assay)” value with human glucagon receptor [1] is 0.01 nM. Also, the “EC50 hGLP1 (cAMP activity assay)” value in the test with human GLP-1 receptor [2] was 0.02 nM.
In the case of HSQGTFTSDYSKYLDSRRAHDFVQWLLNT-NH2 [PD29], the “EC50 hGCGR (cAMP activity assay)” value with human glucagon receptor [3] and in the test with human glucagon receptor [1] was 0.02 nM each time. Also, in the test with human GLP-1 receptor [4], the “EC50 hGLP1R (cAMP activity assay)” value worked out at 0.02 nM. The “EC50 hGLP1 (cAMP activity assay)” value with human GLP-1 receptor [2] amounted to 0.02 nM.
